According to FireProtDB (doi:10.1006/jmbi.1999.3146):
Several values for one entry are separate records, joined by “and”; a condition that tells them apart may be missing. Identical values can stand only once.

Settings: Myxococcus xanthus, Thermal, DSC, reversible: yes, whole UniProt chain shown
[1] = pH 3, glycine-HCl 20 mM, CaCl2 3 mM
[2] = pH 6, Sodium cacodylate 20 mM, CaCl2 3 mM

B1: Development-specific protein S wild type, P02966 (protein)
chain: MANITVFYNEDFQGKQVDLPPGNYTRAQLAALGIENNTISSVKVPPGVKAILYQNDGFAGDQIEVVANAEELGPLNNNVSSIRVISVPVQPRARFFYKEQFDGKEVDLPPGQYTQAELERYGIDNNTISSVKPQGLAVVLFKNDNFSGDTLPVNSDAPTLGAMNNNTSSIRIS
unfolding enthalpy (calorimetric) (pH 1.5, glycine-HCl 20 mM, CaCl2 3 mM): 51.9 kcal/mol and 44.5 kcal/mol | unfolding enthalpy (calorimetric) (pH 1.5, glycine-HCl 20 mM): 48.8 kcal/mol and 42.8 kcal/mol | unfolding enthalpy (calorimetric) (pH 1.75, glycine-HCl 20 mM, CaCl2 3 mM): 50.9 kcal/mol and 46.9 kcal/mol | unfolding enthalpy (calorimetric) (pH 2, glycine-HCl 20 mM, CaCl2 3 mM): 58.6 kcal/mol and 49.2 kcal/mol and 50.2 kcal/mol | Tm (pH 2, glycine-HCl 20 mM): 47.9 °C | unfolding enthalpy (calorimetric) (pH 2, glycine-HCl 20 mM): 55.2 kcal/mol | unfolding enthalpy (calorimetric) (pH 2.25, glycine-HCl 20 mM, CaCl2 3 mM): 66 kcal/mol and 55.2 kcal/mol and 54.5 kcal/mol | Tm (pH 2.25, glycine-HCl 20 mM): 38.3 °C | unfolding enthalpy (calorimetric) (pH 2.25, glycine-HCl 20 mM): 65.7 kcal/mol | unfolding enthalpy (calorimetric) (pH 2.5, glycine-HCl 20 mM, CaCl2 3 mM): 77 kcal/mol and 59 kcal/mol and 60.5 kcal/mol | Tm [1]: 55 °C and 57.3 °C and 59 °C | unfolding enthalpy (calorimetric) [1]: 94.2 kcal/mol and 77.2 kcal/mol and 62.1 kcal/mol | Tm (pH 3, glycine-HCl 20 mM): 53.7 °C and 54.6 °C | unfolding enthalpy (calorimetric) (pH 3, glycine-HCl 20 mM): 89.2 kcal/mol and 69.5 kcal/mol | Tm [2]: 70.1 °C | unfolding enthalpy (calorimetric) [2]: 79.1 kcal/mol | Tm (pH 6, Sodium cacodylate 20 mM): 68.9 °C | unfolding enthalpy (calorimetric) (pH 6, Sodium cacodylate 20 mM): 67.9 kcal/mol | unfolding enthalpy (calorimetric) (pH 9, glycine-NaOH 20 mM): 83.7 kcal/mol and 66.4 kcal/mol and 65 kcal/mol
